Legend:
[1] = target: flagellin on flagellin-expressing Pseudomonas aeruginosa wild type bacteria (Pseudomonas aeruginosa); assay: cell-based or functional assay
[2] = target: MUC1-ED on Ad-NEU1-infected airway epithelial cells (A549 cells; SAECs), desialylated by overexpressed NEU1 (human) (UniProt P15941); assay: cell-based or functional assay

Substance: E. coli-expressed deglycosylated MUC1-ED (from E. coli transformed with pMUC1) (from UniProt P15941 24-1097) (receptor)
- reduction of Pa adhesion to A549 monolayers, against the empty vector control [1]: 93%

Substance: MUC1-ED from supernates of airway ECs cultured with the O-glycosylation inhibitor GalNAc-O-bn (from UniProt P15941 24-1158) (receptor)
- reduction of Pa adhesion to A549 monolayers, against its control [1]: 88%

Substance: desialylated MUC1-ED in bronchoalveolar lavage fluids (BALFs) from Pa-colonized patients (from UniProt P15941 24-1158) (receptor)
- inhibition of Pa adhesion to A549 cells, against BALFs from noncolonized subjects [1]: 52.9%
- inhibition of Pa adhesion to A549 cells, against BALFs from patients colonized with nonPa microorganisms [1]: 42.1%

Substance: desialylated shed MUC1-ED from culture supernates of Ad-NEU1-infected A549 cells (from UniProt P15941 24-1158) (receptor)
- MUC1-ED concentrations capable of inhibiting Pa adhesion in vitro [1]: < 0.63 µg/mL
- reduction of Pa adhesion to A549 monolayers, against MUC1-ED from Ad-GFP-infected ECs [1]: 65%

Substance: flagellin on flagellin-expressing Pseudomonas aeruginosa wild type bacteria (ligand)
- Pa adhesion to Ad-NEU1-infected A549 cells (CFUs bound), against Ad-GFP-infected ECs [2]: 2 fold
- Pa adhesion to Ad-NEU1-infected SAECs (CFUs bound), against Ad-GFP-infected SAECs [2]: 3.4 fold

Substance: shed MUC1-ED from culture supernates of flagellin-stimulated A549 cells (from UniProt P15941 24-1158) (receptor)
- MUC1-ED concentrations capable of inhibiting Pa adhesion in vitro [1]: < 0.63 µg/mL

Source: US20170319655A1
